What was measured:
[1] = biological target: T1, human CAPRIN-1 as expressed on human breast cancer cell line MDA-MB-231V and in human cancer tissues (human, UniProt Q14444 2-709); experiment: flow cytometry on MDA-MB-231V cells expressing CAPRIN-1
T1 construct: whole, on cells; Endogenous protein on cells (flow cytometry) or in paraffin tissue sections (immunohistochemistry); also called CAPRIN-1 on the surface of breast cancer cells; CAPRIN-1 in the breast cancer tissues
T1 sequence (looked up): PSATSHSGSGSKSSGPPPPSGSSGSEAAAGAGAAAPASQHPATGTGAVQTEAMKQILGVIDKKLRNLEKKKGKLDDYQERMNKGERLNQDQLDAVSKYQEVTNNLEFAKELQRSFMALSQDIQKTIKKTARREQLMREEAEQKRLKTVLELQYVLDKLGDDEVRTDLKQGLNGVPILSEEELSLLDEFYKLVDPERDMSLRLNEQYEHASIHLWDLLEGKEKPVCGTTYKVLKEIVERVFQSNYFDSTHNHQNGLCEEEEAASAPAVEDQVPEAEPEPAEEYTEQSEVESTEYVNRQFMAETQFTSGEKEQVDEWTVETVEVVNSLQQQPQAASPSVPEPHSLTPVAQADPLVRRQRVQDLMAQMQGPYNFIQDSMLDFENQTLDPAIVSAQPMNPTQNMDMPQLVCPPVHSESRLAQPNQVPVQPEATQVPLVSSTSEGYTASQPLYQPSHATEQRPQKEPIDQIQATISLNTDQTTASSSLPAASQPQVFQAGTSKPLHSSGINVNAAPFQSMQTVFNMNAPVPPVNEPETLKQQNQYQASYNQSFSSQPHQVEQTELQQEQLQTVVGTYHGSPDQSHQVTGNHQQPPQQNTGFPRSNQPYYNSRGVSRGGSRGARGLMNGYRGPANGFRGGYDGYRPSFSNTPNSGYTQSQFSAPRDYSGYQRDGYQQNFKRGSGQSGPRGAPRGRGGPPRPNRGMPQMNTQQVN
Procedure: Next, these monoclonal antibodies were screened for antibodies reactive with the surface of breast cancer cells expressing CAPRIN-1. Specifically, 5×10⁵ cells of a human breast cancer cell line MDA-MB-231V were centrifuged in a 1.5-mL microcentrifuge tube. 100 μL of the culture supernatant of each hybridoma obtained above was added thereto and left standing for 1 hour on ice. After washing with PBS, FITC-labeled goat anti-chicken IgG (H+L) antibodies (SouthernBiotech) diluted 30-fold with PBS containing 0.1% FBS were added thereto and left standing for 1 hour on ice. After washing with PBS, the fluorescence intensity was measured using FACSCalibur (Becton, Dickinson and Company). On the other hand, the same operation as above was performed using a medium for hybridoma culture to prepare a control sample. As a result, 1 monoclonal antibody (chicken anti-human CAPRIN-1 monoclonal antibody #11) having stronger fluorescence intensity than that of the control, i.e., reactive with the surface of breast cancer cells expressing CAPRIN-1, was selected.

[2] = biological target: T2, peptide consisting of the amino acid sequence shown in SEQ ID NO: 66 (partial CAPRIN-1 sequence) (human); experiment: told from the digestion and MS/MS experiment done with #12
T2 peptide: QQPQAASPSVPE
Procedure: The cancer cell surface-reactive mouse-chicken chimeric anti-human CAPRIN-1 monoclonal antibody #12 obtained in the paragraph (4) was used to identify a CAPRIN-1 epitope region recognized thereby. 100 μg of recombinant CAPRIN-1 proteins was dissolved in a […] dissolving buffer and reacted with the monoclonal antibody #12. To this solution, a digestive enzyme trypsin or chymotrypsin was added, followed by digestion reaction at a proper temperature. After the reaction, a protein G Sepharose carrier was added thereto, then reacted, and precipitated by centrifugation operation. After removal of the supernatant, the carrier was washed with a dissolving buffer and PBS and dissolved in 0.1% formic acid, and the supernatant was recovered. The recovered supernatant sample was applied to a reverse-phase column (HLB Extraction Cartridge (Waters-OASIS)) to obtain an antibody-free sample solution. The obtained sample was subjected to reverse-phase liquid chromatography (Chromatography Nanosytem (KYA Technologies Corp.)) to recover a solution containing only peptides. The solution was introduced to a tandem-type mass spectrometer Quadrupole-TOF Mass Spectrometer (Waters-MicroMass) and analyzed by MS/MS to detect the peptides contained in the sample. […]

[3] = biological target: T3, human CAPRIN-1 having the amino acid sequence shown in SEQ ID NO: 2 (recombinant, as prepared in Example 3 of … (human, UniProt Q14444 1-709)); experiment: ELISA, plate coated with 1 µg/mL CAPRIN-1, hybridoma supernatant
T3 construct: limits and tags of the recombinant construct are described only in WO2010/016526; also called recombinant CAPRIN-1; CAPRIN-1 solution
T3 sequence: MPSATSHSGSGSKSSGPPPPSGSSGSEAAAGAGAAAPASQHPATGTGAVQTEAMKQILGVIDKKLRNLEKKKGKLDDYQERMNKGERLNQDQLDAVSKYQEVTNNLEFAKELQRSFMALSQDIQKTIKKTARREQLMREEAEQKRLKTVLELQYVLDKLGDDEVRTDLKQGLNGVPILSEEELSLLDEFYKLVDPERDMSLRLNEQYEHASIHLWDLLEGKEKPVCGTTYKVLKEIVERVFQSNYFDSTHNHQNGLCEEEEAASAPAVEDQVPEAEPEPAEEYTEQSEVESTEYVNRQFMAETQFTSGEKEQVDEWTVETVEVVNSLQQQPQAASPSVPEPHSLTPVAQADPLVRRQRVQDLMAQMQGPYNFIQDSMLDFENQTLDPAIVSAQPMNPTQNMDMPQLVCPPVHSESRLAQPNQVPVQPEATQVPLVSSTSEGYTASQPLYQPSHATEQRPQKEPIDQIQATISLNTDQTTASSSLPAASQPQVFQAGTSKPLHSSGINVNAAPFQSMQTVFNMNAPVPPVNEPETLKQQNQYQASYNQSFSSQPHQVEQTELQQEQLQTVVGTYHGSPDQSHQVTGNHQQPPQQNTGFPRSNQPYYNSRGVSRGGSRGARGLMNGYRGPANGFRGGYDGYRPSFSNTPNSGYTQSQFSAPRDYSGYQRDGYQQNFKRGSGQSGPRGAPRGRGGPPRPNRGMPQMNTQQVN
Procedure: The prepared hybridomas were screened with the binding affinity of antibodies produced by the hybridomas against CAPRIN-1 as an indicator. The 1 μg/mL CAPRIN-1 solution was added to a 96-well plate at 100 μL/well and left standing at 4° C. for 18 hours. Each well was washed three times with PBS-T. Then, a 0.5% bovine serum albumin (BSA) solution (Sigma-Aldrich Corp.) was added thereto at 400 μL/well and left standing at room temperature for 3 hours. The solution in each well was discarded, and each well was washed three times with 400 μL of PBS-T. Then, the culture supernatant of each hybridoma obtained above was added thereto at 100 μL/well and left standing at room temperature for 2 hours. Each well was washed three times with PBS-T. Then, HRP-labeled anti-chicken IgY antibodies (Sigma-Aldrich Corp.) diluted 5000-fold with PBS were added thereto at 100 μL/well and left standing at room temperature for 1 hour. Each well was washed three times with PBS-T. Then, a TMB substrate solution (Thermo Fisher Scientific Inc.) was added thereto at 100 μL/well and left standing for 15 to 30 minutes to cause color reaction. […] The absorbance was measured at 450 nm and 595 nm using an absorption spectrometer. As a result, several hybridomas producing antibodies having high absorbance were selected as candidate lines of the hybridoma of interest.

Measured: binding result

B1: chicken anti-human CAPRIN-1 monoclonal antibody #11 (antibody, V domains shown)
VH: AVTLDESGGGLQMSRGGLSLVCKASGFDFSSYQMNWIRQAPGKGLEFVAAINKFGNSTGHGAAVKGRVTISRDNGQSTVRLQLNNLRAEDTAIYFCTKHAYGYCGSGTWCAAGEIDAWGHGTEVIVSS
VL: QAASTQPSSVSANPGETVEITCSGGGSYSYGWFQQKSPGSAPVTVIYYNNKRPSDIPSRFSGSKSGSTGTLTITGVQADDEAVYYCGSGDSTDTAVFGAGTTLTVLG
notes: Chicken hybridoma antibody; also called chicken monoclonal antibody #11
binds: all assays above

Reference: patent publication US20150198603A1 (TORAY INDUSTRIES, published 2015)
